According to publication PMC3391102 (The Journal of Biological Chemistry, 2012):

Target: Full-length NOD2 (purified recombinant, tags removed) (UniProt Q9HC29 1-1040)
Assay: SPR

Sequence of Full-length NOD2 (purified recombinant, tags removed) (Q9HC29 whole entry): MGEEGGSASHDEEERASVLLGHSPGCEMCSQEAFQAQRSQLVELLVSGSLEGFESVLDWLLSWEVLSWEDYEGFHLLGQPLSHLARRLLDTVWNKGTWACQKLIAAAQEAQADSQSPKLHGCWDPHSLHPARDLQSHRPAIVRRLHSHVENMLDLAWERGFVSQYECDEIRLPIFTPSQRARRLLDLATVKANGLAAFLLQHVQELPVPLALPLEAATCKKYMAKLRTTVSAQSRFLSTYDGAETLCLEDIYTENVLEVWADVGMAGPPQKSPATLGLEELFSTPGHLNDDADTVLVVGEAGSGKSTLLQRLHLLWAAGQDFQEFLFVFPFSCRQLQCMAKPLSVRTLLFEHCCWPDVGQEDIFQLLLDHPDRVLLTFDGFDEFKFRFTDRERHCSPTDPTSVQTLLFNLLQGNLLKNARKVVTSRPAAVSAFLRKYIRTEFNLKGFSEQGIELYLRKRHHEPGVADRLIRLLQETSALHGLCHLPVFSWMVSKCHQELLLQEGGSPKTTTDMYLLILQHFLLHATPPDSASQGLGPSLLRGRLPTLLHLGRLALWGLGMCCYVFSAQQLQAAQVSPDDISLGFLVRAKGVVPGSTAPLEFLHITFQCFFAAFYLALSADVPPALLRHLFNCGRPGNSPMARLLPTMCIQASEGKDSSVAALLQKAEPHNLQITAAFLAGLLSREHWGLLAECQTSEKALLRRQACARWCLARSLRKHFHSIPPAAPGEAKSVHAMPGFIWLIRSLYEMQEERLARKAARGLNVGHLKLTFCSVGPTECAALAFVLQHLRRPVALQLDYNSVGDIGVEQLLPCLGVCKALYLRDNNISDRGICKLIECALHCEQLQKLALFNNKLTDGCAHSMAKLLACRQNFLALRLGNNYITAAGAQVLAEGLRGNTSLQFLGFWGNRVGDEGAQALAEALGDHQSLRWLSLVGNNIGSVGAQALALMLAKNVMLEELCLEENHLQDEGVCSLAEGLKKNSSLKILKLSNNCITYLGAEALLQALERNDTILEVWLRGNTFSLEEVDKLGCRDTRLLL

Kd: 12.4 ± 0.58 µM
B1: NOD2 CARDs (residues Met28-Arg227) (domain or fragment)
chain: MCSQEAFQAQRSQLVELLVSGSLEGFESVLDWLLSWEVLSWEDYEGFHLLGQPLSHLARRLLDTVWNKGTWACQKLIAAAQEAQADSQSPKLHGCWDPHSLHPARDLQSHRPAIVRRLHSHVENMLDLAWERGFVSQYECDEIRLPIFTPSQRARRLLDLATVKANGLAAFLLQHVQELPVPLALPLEAATCKKYMAKLR
